Reference: US20250230217A1

Target: mesothelin-Fc fusion protein (human) (UniProt Q13421)
Experiment: cell-based or functional assay

Chain of UniProt Q13421 (Q13421 other isoform, or with tags, fused parts or gaps limits assumed): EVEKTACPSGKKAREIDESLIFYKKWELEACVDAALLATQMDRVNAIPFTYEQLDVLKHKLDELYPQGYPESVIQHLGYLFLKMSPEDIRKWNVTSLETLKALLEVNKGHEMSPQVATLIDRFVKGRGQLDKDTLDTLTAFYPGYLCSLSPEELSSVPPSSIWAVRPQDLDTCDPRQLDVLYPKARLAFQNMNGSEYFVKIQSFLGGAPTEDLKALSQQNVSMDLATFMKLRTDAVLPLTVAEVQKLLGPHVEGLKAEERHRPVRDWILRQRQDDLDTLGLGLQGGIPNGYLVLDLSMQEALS

Row | Total Population Doublings (donor 1) (population doublings) | Total Population Doublings (donor 2) (population doublings) | Total Population Doublings (donor 3) (population doublings) | Substance
1 | 8.8 | 8.4 | 8.4 | mesothelin-specific BBz CAR (SS1 scFv, 4-1BB and CD3z domains)
2 | 5.8 | 6.9 | 6 | mesothelin-specific 28z CAR (SS1 scFv, CD28 and CD3z domains)
